# Data as given in US20220242941A1 (NOVOBIND LIVESTOCK THERAPEUTICS, published 2022).
# T1: Eimeria maxima MIC2 (Eimeria maxima)
# T1 construct: Recombinant antigen coated on ELISA wells; also called EmMIC2
# T1 chain: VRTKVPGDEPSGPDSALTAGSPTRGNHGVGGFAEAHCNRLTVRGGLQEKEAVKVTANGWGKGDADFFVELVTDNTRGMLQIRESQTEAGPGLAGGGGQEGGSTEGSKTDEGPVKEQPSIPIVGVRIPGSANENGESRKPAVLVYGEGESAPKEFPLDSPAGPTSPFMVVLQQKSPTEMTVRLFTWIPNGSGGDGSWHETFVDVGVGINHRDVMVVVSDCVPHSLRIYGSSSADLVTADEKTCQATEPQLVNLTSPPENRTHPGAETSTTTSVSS
# Key:
# Eimeria maxima MIC2 = target: T1, Eimeria maxima MIC2; assay: phage ELISA, antigen-coated wells;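 further: antigen dissolved in PBS and coated onto wells, with negative-control wells holding PBS alone as the reference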
# Text: Black bars show binding to wells coated with the antigen specified in Tables 1 and 2 dissolved in phosphate-buffered saline (PBS). Grey bars are negative controls that show binding to wells coated with PBS only.
# [1] = target: T2, GST fusion of the EtAMA1-binding peptide of EtRON2 (Eimeria tenella, UniProt P08515 1-218 = GST); assay: phage ELISA, wells coated with GST-RON2 peptide
# T2 construct: Expressed in E. coli, purified as the other antigens but without TEV cleavage, so a His tag and TEV site probably remain; also called GST-RON2 peptide
# T2 sequence (P08515 1-218, tags or fused parts left off): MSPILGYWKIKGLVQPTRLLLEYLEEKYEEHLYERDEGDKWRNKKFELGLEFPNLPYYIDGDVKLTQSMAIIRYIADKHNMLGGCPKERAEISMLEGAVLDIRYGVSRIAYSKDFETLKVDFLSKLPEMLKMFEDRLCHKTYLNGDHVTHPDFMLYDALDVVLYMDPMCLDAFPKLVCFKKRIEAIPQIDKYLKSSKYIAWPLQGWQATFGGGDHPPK
Binder,binding relative to PBS-coated wells (Eimeria maxima MIC2),binding relative to GST-coated wells [1],binding relative to PBS-coated wells [1]
NBX0717 (VHH) VHH: QVQLQESGGGLVQAGGSLRLSCAASTNIATFTTMGWYRQAPGKERELVATTTPWGATTSYADSVKGRFTISNDNAKNTVNLQMNSLKPEDTAVYYCNAQQDIPTTQTYWGQGTQVTVSS,≥ 4 times,–,–
NBX16034 (VHH) VHH: QVQLQESGGGVVQAGGSLRLSCVASGSDTSVYAMRWWRQVPGKERLLLASITSGGTVRYAESVKGRFTISRDDAKNTLYLQMNSLKTEDTAVYLCNAERVLARQNYWGQGTQVTVSS,–,≥ 3 times,≥ 4 times
NBX0718 (VHH) VHH: QVQLQESGGGLVQAGGSLRLSCAANGRTFSSYAMAWFRQAPGKEREFVAAVGWSGGRTYYTDSVKGRFTISRDNAKDTVYLQMNSLKPEDTAVYYCAATRGWAQATLLYDYDYWGQGTQVTVSS,≥ 4 times,–,–
NBX16043 (VHH) VHH: QVQLQESGGGLVQAGGSLRLSCAASGIAFSMFDMVWYRQAPGKQRELVASVSDGGSTAYADSVKGRFTISRDNAKKMVYLQMNSLKPEDTAVYYCKAARSWAYGSGYWGQGIQVTVSS,–,≥ 3 times,≥ 4 times
NBX0711 (VHH) VHH: QVQLQQSGGGLVQPGGSLRLSCAASRSIRSADAMAWYRQAPGKQRVWVATITSGGSTYYTDSVKGRFTISRDNAKSTVYLQMSSLKPEDTAVYYCNAVGDRTSYWGQGTQVTVAS,≥ 4 times,–,–
NBX0733 (VHH) VHH: QVQLQQSGGGLVQPGGSLRLSCAASGSIFSVDAMAWYRQAPGKQREWVATFTKGGSTYYAGSVKGRFTISRDNAKNTVYLQMSSLKPEDTAVYYCNAVGDRTGAWGQGTQVTVAS,≥ 4 times,–,–
NBX0716 (VHH) VHH: QVQLQESGGGLVQAGGSLSLSCTASGRTFSTFPVAWFRQAPGKEREFVARINWFTTDTYYADSVKGRFTISRDSAKNTVYLQMNALKPEDTAIYYCAAARSNTGTSRFDYWGQGTQVTVSS,≥ 4 times,–,–
NBX16038 (VHH) VHH: QVQLQQSGGGLVQSGGSLRLSCTATRSTISGYGGRWYRQAPGKQREFVALLSSGGMTRYADSVMGRFTISRDDIKNTLYLQMNTLKPEDTAVYYCNTFDGAWGQGTQVTVSS,–,≥ 3 times,≥ 4 times
NBX0707 (VHH) VHH: QVQLQESGGGLVQAGGSLRLSCAASGSIFSRDTMAWYRQVPGEQRELVAFITNFGGTNHADSVKGRFTISRDNAKNTVYLQMNSLKPEDTAVYYCAAGLVSLRTHTWEYWGQGTQVTVSS,4 times,–,–
NBX0709 (VHH) VHH: QVQLQESGGGLVQAGGSLRLSCAASGSIFSRDTMAWYRQVPGEQRELVAYITNFGGTNHADSVKGRFTISRDNAKNTVYLQMNSLKPEDTAVYYCAAGLVSLHTHTWEYWGQGTQVTVSS,≥ 4 times,–,–
NBX0734 (VHH) VHH: QVQLQESGGGLVQAGGSLRLSCAASGSIFSRDTMAWYRQVPGEQRELVAYITNFGGTNHADSVKGRFTISRDNAKNTVYLQMNSLKPEETAVYYCAAGLVSLRTHTWEYWGQGTQVTVSS,≥ 4 times,–,–
NBX0752 (VHH) VHH: QVQLQESGGGLVQAGGSLRLSCAASGSIFSRDNMAWYRQVPGEQRELVALITNFGGTNHADSVKGRFTISRDNAKNTVYLQMNSLKPEDTAVYYCAAGLVSLLTHTWEYWGQGTQVTVSS,≥ 4 times,–,–
NBX0731 (VHH) VHH: QVQLQESGGGLVQPGGSLRVSCAASGFTFSRDTMAWYRQVPGEQRELVAYITNFGGTNHADSVKGRFTISRDNAKNTVYLQMNSLKPEDTAVYYCAAGLVSLRTHTWEYWGQGTQVTVSS,≥ 4 times,–,–
NBX0714 (VHH) VHH: QVQLQESGGGLVQAGGSLRLSCAASGSIFSRDTMAWYRQVPGEQRELVAYITNFGGTNHAGSVKGRFTISRDNAKNTVYLQMNSLKPEDTAVYYCAAELVSLRTHTWEYWGQGTQVTVSS,≥ 4 times,–,–
NBX16036 (VHH) VHH: QVQLQESGGGLVQAGGSLRLSCVALGNIGWINDMGWYRQAPGKERELVARISSAEATNYADAVKGRFTISRDDAKNTVYLQMNSLKPEDTAVYSCHTRRWYDDGYDYDTWGQGTQVTVSS,–,≥ 3 times,≥ 4 times
NBX0708 (VHH) VHH: QVQLQESGGGLVQAGDSLSLSCVDSKRTADRYVMHWFRQVPGKDREFVAAISGNGLVRNYADSVKGRFTISRDNAKNMVYLQMKSLKPEDTAVYYCAADFVLDSRWRYVPYWGQGTQVTVSS,≥ 4 times,–,–
NBX0740 (VHH) VHH: QVQLQESGGGLVQAGGSLRLSCAASGRTFVNYNMGWFRQAPGKEREFVATINWSGGSTYYAGSVKGRFTISRDSAKNTVYLQMNKLKPEDTAVYYCAAEVGYGYQGPPLTTPSMYDYWGQGTQVTVST,≥ 4 times,–,–
NBX0713 (VHH) VHH: QVQLQESGGGLVQPGGSLRLSCAASGRTFRRNAMGWFRQAPGKAREFVATISWSGNRAYSDSVKGRFTISRDNGKNLVSLQMNSLKPEDTAVYYCAAARERITSTYYTPHVLTDYDAWGQGAQVTVSS,≥ 4 times,–,–
NBX0732 (VHH) VHH: QVQLQESGGGLVQTGGSLRLSCAASGRTFRRNAMGWFRQAPGKAREFVATITWSGNRAYSDSVKGRFTISRDNEKNLVSLQMNSLKPEDTAVYYCAAARERITSTYYTPHVLTEYDAWGQGAQVTVSS,≥ 4 times,–,–
NBX0715 (VHH) VHH: QVQLQQSGGGLVQAGGSLRLSCAASGRTFSRNAMGWFRQAPGKAREFVATISWSGNRAYSDSVKGRFTISRDNEKNLVSLHMNSLKPEDTAVYYCAAARERITSTYYTPHVLTDYDAWGQGAQVTVSS,≥ 4 times,–,–
NBX0712 (VHH) VHH: QVQLQESGGGLVQTGGSLRLSCAASGRTFTRNAMGWFRQAPGKAREFVAVISWSGNRAYSDSVKGRFTISRDNGKNLVSLQMNSLKPEDTAVYYCAAAREAITSTYYTPHVLTDYDAWGQGAQVTVSS,≥ 4 times,–,–
NBX16040 (VHH) VHH: QVQLQESGGGMVQAGGSLRLSCAASGTTITINTMRWYRQPPGKERELVASIVPSGKTYYADSVKGRFTISRDNHKNTMYLQMNSLKPEDTAVYYCNSDGRFRGIGTYWGQGTQVTVSS,–,≥ 3 times,≥ 4 times
NBX16035 (VHH) VHH: QVQLQESGGGLVQAGGSLRLSCAASGSIFSINVIGWYRQVPGKERELVANSGSTTKYADSVKGRFTISRDNAKNTVDLQMNSLKPEDTAVYYCNAVVTSRTSLGLRSYVYWGQGTQVTVSS,–,≥ 3 times,≥ 4 times
NBX16041 (VHH) VHH: QVQLQESGGGLVQAGGSLRLSCAASGSIFSINVIGWYRQAPGKERELVANSGSTTKYADSVKGRFTISRDNAKNTVDLQMNSLKPEDTAVYYCNAVVTSRTSLGLRSYAYWGQGTQVTVSS,–,≥ 3 times,≥ 4 times
NBX16037 (VHH) VHH: QVQLQQSGGGLVQAGGSLRLSCAASGSIFSINVIGWYRQVPGKERELVAKSDRTTKYADSVKGRFTISRDNAKNTVDLQMNSLKPEDTAVYYCNAVVTSRTSQGLRSYAYWGQGTQVTVSS,–,≥ 3 times,≥ 4 times
NBX16039 (VHH) VHH: QVQLQQSGGGLVQAGGSLRLSCTTSGIIFSFSLLNVGWYRQAPGKERELVARMSTAGNTYYSTSVKDRFTISRDNGKNTVDLQMNSLNADDTAVYYCNLRRSWAPSDSGFWGQGTQVFVSS,–,≥ 3 times,≥ 4 times
NBX0750 (VHH) VHH: QVQLQESGGGLVQPGDSLRLSCAPSGRTFSGYVTGWFRQAPGMEREFVAAITWSGDSTYYADSVKGRFQISRDSAKNTVYLQMNSLKPEDAGVYYCAVKSQTYSTDYVQPRRYAYWGQGTQVTVSS,≥ 4 times,–,–
NBX16033 (VHH) VHH: QVQLQESGGGTVQAGGSLRLSCAVSGSTFSSYSMNWYRQGPGNQREWVGGIRSNDSTYYADSVKGRFTISRDNAKNAWNLQMNSLKSEDTAVYYCNFWDGSFNQYWGQGTQVTVSA,–,≥ 3 times,≥ 4 times
NBX16042 (VHH) VHH: QVQLQESGGGLVQAGGSLRLSCVASGITFNFNYYVMGWYRQAPGKQRELVARISDGGNTNYADSVKGRFTISRDNTKNTGYLQMNSLKPEDTAIYYCNLRRSWAPADNGHWGQGTQVTVSS,–,≥ 3 times,≥ 4 times
